Test results published in publication PMC11574045, “A cofactor-induced repressive type of transcription factor condensation can be induced by synthetic peptides to suppress tumorigenesis” (The EMBO Journal, 2024).

B1: HSFX1 (protein, UniProt Q9UBD0 1-423, looked up)
Heat shock transcription …: MEDKRSLSMARCEERNSRGQDHGLERVPFPPQLQSETYLHPADPSPAWDDPGSTGSPNLRLLTEEIAFQPLAEEASFRRPHPDGDVPPQGEDNLLSLPFPQKLWRLVSSNQFSSIWWDDSGACRVINQKLFEKEILKRDVAHKVFATTSIKSFFRQLNLYGFRKRRQCTFRTFTRIFSAKRLVSILNKLEFYCHPYFQRDSPHLLVRMKRRVGVKSAPRHQEEDKPEAAGSCLAPADTEQQDHTSPNENDQVTPQHREPAGPNTQIRSGSAPPATPVMVPDSAVASDNSPVTQPAGEWSEGSQAHVTPVAAVPGPAALPFLYVPGSPTQMNSYGPVVALPTASRSTLAMDTTGLPAPGMLPFCHLWVPVTLVAAGAAQPAASMVMFPHLPALHHHCPHSHRTSQYMPASDGPQAYPDYADQST
B2: IKZF1 (protein, UniProt Q13422 1-519, looked up)
DNA-binding protein Ikaros: MDADEGQDMSQVSGKESPPVSDTPDEGDEPMPIPEDLSTTSGGQQSSKSDRVVASNVKVETQSDEENGRACEMNGEECAEDLRMLDASGEKMNGSHRDQGSSALSGVGGIRLPNGKLKCDICGIICIGPNVLMVHKRSHTGERPFQCNQCGASFTQKGNLLRHIKLHSGEKPFKCHLCNYACRRRDALTGHLRTHSVGKPHKCGYCGRSYKQRSSLEEHKERCHNYLESMGLPGTLYPVIKEETNHSEMAEDLCKIGSERSLVLDRLASNVAKRKSSMPQKFLGDKGLSDTPYDSSASYEKENEMMKSHVMDQAINNAINYLGAESLRPLVQTPPGGSEVVPVISPMYQLHKPLAEGTPRSNHSAQDSAVENLLLLSKAKLVPSEREASPSNSCQDSTDTESNNEEQRSGLIYLTNHIAPHARNGLSLKEEHRAYDLLRAASENSQDALRVVSTSGEQMKVYKCEHCRVLFLDHVMYTIHMGCHGFRDPFECNMCGYHSQDRYEFSSHITRGEHRFHMS
B3: HSFY1 (protein, UniProt Q96LI6 1-401, looked up)
Heat shock transcription …: MAHVSSETQDVSPKDELTASEASTRSPLCEHTFPGDSDLRSMIEEHAFQVLSQGSLLESPSYTVCVSEPDKDDDFLSLNFPRKLWKIVESDQFKSISWDENGTCIVINEELFKKEILETKAPYRIFQTDAIKSFVRQLNLYGFSKIQQNFQRSAFLATFLSEEKESSVLSKLKFYYNPNFKRGYPQLLVRVKRRIGVKNASPISTLFNEDFNKKHFRAGANMENHNSALAAEASEESLFSASKNLNMPLTRESSVRQIIANSSVPIRSGFPPPSPSTSVGPSEQIATDQHAILNQLTTIHMHSHSTYMQARGHIVNFITTTTSQYHIISPLQNGYFGLTVEPSAVPTRYPLVSVNEAPYRNMLPAGNPWLQMPTIADRSAAPHSRLALQPSPLDKYHPNYN
B4: IKZF2 (protein, UniProt Q9UKS7 1-526, looked up)
Zinc finger protein Helios: METEAIDGYITCDNELSPEREHSNMAIDLTSSTPNGQHASPSHMTSTNSVKLEMQSDEECDRKPLSREDEIRGHDEGSSLEEPLIESSEVADNRKVQELQGEGGIRLPNGKLKCDVCGMVCIGPNVLMVHKRSHTGERPFHCNQCGASFTQKGNLLRHIKLHSGEKPFKCPFCSYACRRRDALTGHLRTHSVGKPHKCNYCGRSYKQRSSLEEHKERCHNYLQNVSMEAAGQVMSHHVPPMEDCKEQEPIMDNNISLVPFERPAVIEKLTGNMGKRKSSTPQKFVGEKLMRFSYPDIHFDMNLTYEKEAELMQSHMMDQAINNAITYLGAEALHPLMQHPPSTIAEVAPVISSAYSQVYHPNRIERPISRETADSHENNMDGPISLIRPKSRPQEREASPSNSCLDSTDSESSHDDHQSYQGHPALNPKRKQSPAYMKEDVKALDTTKAPKGSLKDIYKVFNGEGEQIRAFKCEHCRVLFLDHVMYTIHMGCHGYRDPLECNICGYRSQDRYEFSSHIVRGEHTFH
B5: IDB3 (protein, UniProt Q02535 1-119, looked up)
DNA-binding protein inhibitor …: MKALSPVRGCYEAVCCLSERSLAIARGRGKGPAAEEPLSLLDDMNHCYSRLRELVPGVPRGTQLSQVEILQRVIDYILDLQVVLAEPAPGPPDGPHLPIQTAELTPELVISNDKRSFCH
B6: ARL2BP (protein, UniProt Q9Y2Y0 1-163, looked up)
ADP-ribosylation factor-like …: MDALEGESFALSFSSASDAEFDAVVGYLEDIIMDDEFQLLQRNFMDKYYLEFEDTEENKLIYTPIFNEYISLVEKYIEEQLLQRIPEFNMAAFTTTLQHHKDEVAGDIFDMLLTFTDFLAFKEMFLDYRAEKEGRGLDLSSGLVVTSLCKSSSLPASQNNLRH
B7: IFI16 (protein, UniProt Q16666 1-785, looked up)
Gamma-interferon-inducible …: MGKKYKNIVLLKGLEVINDYHFRMVKSLLSNDLKLNLKMREEYDKIQIADLMEEKFRGDAGLGKLIKIFEDIPTLEDLAETLKKEKLKVKGPALSRKRKKEVDATSPAPSTSSTVKTEGAEATPGAQKRKKSTKEKAGPKGSKVSEEQTQPPSPAGAGMSTAMGRSPSPKTSLSAPPNSSSTENPKTVAKCQVTPRRNVLQKRPVIVKVLSTTKPFEYETPEMEKKIMFHATVATQTQFFHVKVLNTSLKEKFNGKKIIIISDYLEYDSLLEVNEESTVSEAGPNQTFEVPNKIINRAKETLKIDILHKQASGNIVYGVFMLHKKTVNQKTTIYEIQDDRGKMDVVGTGQCHNIPCEEGDKLQLFCFRLRKKNQMSKLISEMHSFIQIKKKTNPRNNDPKSMKLPQEQRQLPYPSEASTTFPESHLRTPQMPPTTPSSSFFTKKSEDTISKMNDFMRMQILKEGSHFPGPFMTSIGPAESHPHTPQMPPSTPSSSFLTTKSEDTISKMNDFMRMQILKEGSHFPGPFMTSIGPAESHPHTPQMPPSTPSSSFLTTLKPRLKTEPEEVSIEDSAQSDLKEVMVLNATESFVYEPKEQKKMFHATVATENEVFRVKVFNIDLKEKFTPKKIIAIANYVCRNGFLEVYPFTLVADVNADRNMEIPKGLIRSASVTPKINQLCSQTKGSFVNGVFEVHKKNVRGEFTYYEIQDNTGKMEVVVHGRLTTINCEEGDKLKLTCFELAPKSGNTGELRSVIHSHIKVIKTRKNKKDILNPDSSMETSPDFFF
B8: ING1L (protein, UniProt Q9H160 1-280, looked up)
Inhibitor of growth protein 2: MLGQQQQQLYSSAALLTGERSRLLTCYVQDYLECVESLPHDMQRNVSVLRELDNKYQETLKEIDDVYEKYKKEDDLNQKKRLQQLLQRALINSQELGDEKIQIVTQMLELVENRARQMELHSQCFQDPAESERASDKAKMDSSQPERSSRRPRRQRTSESRDLCHMANGIEDCDDQPPKEKKSKSAKKKKRSKAKQEREASPVEFAIDPNEPTYCLCNQVSYGEMIGCDNEQCPIEWFHFSCVSLTYKPKGKWYCPKCRGDNEKTMDKSTEKTKKDRRSR
B9: IRF2 (protein, UniProt P14316 1-349, looked up)
Interferon regulatory factor 2: MPVERMRMRPWLEEQINSNTIPGLKWLNKEKKIFQIPWMHAARHGWDVEKDAPLFRNWAIHTGKHQPGVDKPDPKTWKANFRCAMNSLPDIEEVKDKSIKKGNNAFRVYRMLPLSERPSKKGKKPKTEKEDKVKHIKQEPVESSLGLSNGVSDLSPEYAVLTSTIKNEVDSTVNIIVVGQSHLDSNIENQEIVTNPPDICQVVEVTTESDEQPVSMSELYPLQISPVSSYAESETTDSVPSDEESAEGRPHWRKRNIEGKQYLSNMGTRGSYLLPGMASFVTSNKPDLQVTIKEESNPVPYNSSWPPFQDLPLSSSMTPASSSSRPDRETRASVIKKTSDITQARVKSC
B10: IRF1 (protein, UniProt P10914 1-325, looked up)
Interferon regulatory factor 1: MPITRMRMRPWLEMQINSNQIPGLIWINKEEMIFQIPWKHAAKHGWDINKDACLFRSWAIHTGRYKAGEKEPDPKTWKANFRCAMNSLPDIEEVKDQSRNKGSSAVRVYRMLPPLTKNQRKERKSKSSRDAKSKAKRKSCGDSSPDTFSDGLSSSTLPDDHSSYTVPGYMQDLEVEQALTPALSPCAVSSTLPDWHIPVEVVPDSTSDLYNFQVSPMPSTSEATTDEDEEGKLPEDIMKLLEQSEWQPTNVDGKGYLLNEPGVQPTSVYGDFSCKEEPEIDSPGGDIGLSLQRVFTDLKNMDATWLDSLLTPVRLPSIQAIPCAP
B11: IRF3 (protein, UniProt Q14653 1-427, looked up)
Interferon regulatory factor 3: MGTPKPRILPWLVSQLDLGQLEGVAWVNKSRTRFRIPWKHGLRQDAQQEDFGIFQAWAEATGAYVPGRDKPDLPTWKRNFRSALNRKEGLRLAEDRSKDPHDPHKIYEFVNSGVGDFSQPDTSPDTNGGGSTSDTQEDILDELLGNMVLAPLPDPGPPSLAVAPEPCPQPLRSPSLDNPTPFPNLGPSENPLKRLLVPGEEWEFEVTAFYRGRQVFQQTISCPEGLRLVGSEVGDRTLPGWPVTLPDPGMSLTDRGVMSYVRHVLSCLGGGLALWRAGQWLWAQRLGHCHTYWAVSEELLPNSGHGPDGEVPKDKEGGVFDLGPFIVDLITFTEGSGRSPRYALWFCVGESWPQDQPWTKRLVMVKVVPTCLRALVEMARVGGASSLENTVDLHISNSHPLSLTSDQYKAYLQDLVEGMDFQGPGES
B12: IRF8 (protein, UniProt Q02556 1-426, looked up)
Interferon regulatory factor 8: MCDRNGGRRLRQWLIEQIDSSMYPGLIWENEEKSMFRIPWKHAGKQDYNQEVDASIFKAWAVFKGKFKEGDKAEPATWKTRLRCALNKSPDFEEVTDRSQLDISEPYKVYRIVPEEEQKCKLGVATAGCVNEVTEMECGRSEIDELIKEPSVDDYMGMIKRSPSPPEACRSQLLPDWWAQQPSTGVPLVTGYTTYDAHHSAFSQMVISFYYGGKLVGQATTTCPEGCRLSLSQPGLPGTKLYGPEGLELVRFPPADAIPSERQRQVTRKLFGHLERGVLLHSSRQGVFVKRLCQGRVFCSGNAVVCKGRPNKLERDEVVQVFDTSQFFRELQQFYNSQGRLPDGRVVLCFGEEFPDMAPLRSKLILVQIEQLYVRQLAEEAGKSCGAGSVMQAPEEPPPDQVFRMFPDICASHQRSFFRENQQITV
B13: ID4 (protein, UniProt P47928 1-161, looked up)
DNA-binding protein inhibitor …: MKAVSPVRPSGRKAPSGCGGGELALRCLAEHGHSLGGSAAAAAAAAAARCKAAEAAADEPALCLQCDMNDCYSRLRRLVPTIPPNKKVSKVEILQHVIDYILDLQLALETHPALLRQPPPPAPPHHPAGTCPAAPPRTPLTALNTDPAGAVNKQGDSILCR
B14: IRF5 (protein, UniProt Q13568 1-498, looked up)
Interferon regulatory factor 5: MNQSIPVAPTPPRRVRLKPWLVAQVNSCQYPGLQWVNGEKKLFCIPWRHATRHGPSQDGDNTIFKAWAKETGKYTEGVDEADPAKWKANLRCALNKSRDFRLIYDGPRDMPPQPYKIYEVCSNGPAPTDSQPPEDYSFGAGEEEEEEEELQRMLPSLSLTEDVKWPPTLQPPTLRPPTLQPPTLQPPVVLGPPAPDPSPLAPPPGNPAGFRELLSEVLEPGPLPASLPPAGEQLLPDLLISPHMLPLTDLEIKFQYRGRPPRALTISNPHGCRLFYSQLEATQEQVELFGPISLEQVRFPSPEDIPSDKQRFYTNQLLDVLDRGLILQLQGQDLYAIRLCQCKVFWSGPCASAHDSCPNPIQREVKTKLFSLEHFLNELILFQKGQTNTPPPFEIFFCFGEEWPDRKPREKKLITVQVVPVAARLLLEMFSGELSWSADSIRLQISNPDLKDRMVEQFKELHHIWQSQQRLQPVAQAPPGAGLGVGQGPWPMHPAGMQ

System: HEK293FT cells transfected with TF library
Experiment: Screening of TF condensates based on fluorescent puncta
Assay type: cell-based
Details: Figure 1B numerical data; TF library screen, one value per transcriptional factor
Outline: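 Cells were seeded onto plasmid/PEI-loaded wells (plasmid 1.6 μg/ml final) and grown 60 h. Medium with or without glucose followed for 12 h. Fixed, permeabilized cells were stained against Flag or GAL4 tags, and condensate puncta were quantified from 50 random fields per well.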

| Molecule | Z score of condensed fraction |
| --- | --- |
| B1 | -0.6149 |
| B2 | 0.01528 |
| B3 | 0.153 |
| B4 | 1.456 |
| B5 | -0.588 |
| B6 | 1.651 |
| B7 | -0.2342 |
| B8 | -0.141 |
| B9 | -0.3538 |
| B10 | -0.5727 |
| B11 | 1.843 |
| B12 | 2.123 |
| B13 | -0.9102 |
| B14 | -0.5098 |
